Assay [1] has as its target H7N9病毒 A/Anhui/1/2013 (血凝素HA on virus) (influenza A virus A/Anhui/1/2013 (H7N9)). Description: cell-based or functional assay.
Assay [2] has as its target H7N9病毒的HA蛋白(购自ACROBiosystems) (H7N9 influenza virus). Briefly: ELISA, HA coated, supernatant of transfected 293F cells, anti-human IgG-HRP. A general note: In an ELISA, binding on a coated surface is turned into a signal by an enzyme label.
Assay [3] shares this target. Description: BLI (PALL Fortebio), 3F12 captured on protein A sensor, HA antigen in solution.

Values joined by “and” are separate entries in the source; they are usually repeats but may differ in a detail not shown here. Equal entries are not always repeated.

B1: 抗H7N9全人源单克隆抗体3F12 (antibody, V domains shown)
VH: QVQLVESGAEVKKPGASVKVSCKASGYIFNSYDINWVRQATGQGLEWMGWMTPDSGDNGFAQKFQGRVTMTRNTSITTAYMELSSLTSEDTAVYYCANGTADCSSGGSCYTWFDPWGQGTLVTVSS
VL: SSELTQDPAVSVALGQTVRITCQGDRALRSYYASWYQQKPGQAPVLVIYGKTNRPSGIPDRFSGSSSGNTASLTITGAQAEDEADYYCTSRDNSGYHLVFGGGTKLTVLV
B1: in assay [1], the 中和实验 IC50 (微量中和-ELISA, MDCK细胞) came out at 14.3 µg/mL. Further, in assay [2], the OD 450nm was 2.31 OD450 and 2.78 OD450 and 2.06 OD450. Besides, the Kd – broadly, the free concentration of one partner at which half of the binding sites on the other are occupied at equilibrium, for simple one-to-one binding – in assay [3] worked out at 3.5 nM.
